Source: PMC6491591 (2019)

B1: Gonadotropin Regulated Testicular Helicase (GRTH/DDX25), wild type, V5-His tagged [human] / Protein Kinase A catalytic subunit alpha (PKA-Cα), overexpressed [not stated] (parent complex)
chain 1: MASLLWGGDAGAAESERLNSHFSNLSQPRKNLWGIKSTAVRNIDGSINNINEDDEEDVVDLAANSLLNKLIHQSLVESSHRVEVLQKDPSSPLYSVKTFEELRLKEELLKGIYAMGFNRPSKIQEMALPMMLAHPPQNLIAQSQSGTGKTAAFVLAMLSRVNALELFPQCLCLAPTYELALQTGRVVEQMGKFCVDVQVMYAIRGNRIPRGTDITKQIIIGTPGTVLDWCFKLKLIDLTKIRVFVLDEADVMIDTQGFSDHSIRIQRALPSECQMLLFSATFEDSVWHFAERIIPDPNVIKLRKEELTLNNIRQYYVLCEHRKDKYQALCNIYGSITIGQAIIFCQTRRNAKWLTVEMIQDGHQVSLLSGELTVEQRASIIQRFRDGKEKVLITTNVCARGIDVKQVTIVVNFDLPVKQGEEPDYETYLHRIGRTGRFGKKGLAFNMIEVDELPSLMKIQDHFNSSIKQLNAEDMDEIEKIDY
chain 2: not shown

Variants of: B1
Experiment: co-immunoprecipitation (IP: V5 antibody), western blot band intensity quantified with ImageJ; COS-1 cells co-transfected with GRTH-V5 and PKA-Cα; read off a plot

Variant	response
chain 1 T239A	~1.3 Arbitrary units
chain 1 E165A, chain 1 K240A	~1 Arbitrary units
chain 1 E165A	~1.2 Arbitrary units

Variants of: B1
Experiment: co-immunoprecipitation (IP: PKA-Cα antibody), western blot band intensity quantified with ImageJ; COS-1 cells co-transfected with GRTH-V5 and PKA-Cα; read off a plot

Variant	response
chain 1 T239A	~1.2 Arbitrary units
chain 1 E165A, chain 1 K240A	~1.2 Arbitrary units
chain 1 E165A	~1.2 Arbitrary units
